The conditions of this series: Streptomyces albogriseolus, Thermal, DSC, reversible: yes (70-85%), whole UniProt chain shown.

Tm data for one protein are collected here from FireProtDB (doi:10.1021/bi00252a018).

B1: Subtilisin inhibitor wild type, P01006 (protein)
chain: MRNTGAGPSPSVSRPPPSAAPLSGAALAAPGDAPSALYAPSALVLTVGKGVSATTAAPERAVTLTCAPGPSGTHPAAGSACADLAAVGGDLNALTRGEDVMCPMVYDPVLLTVDGVWQGKRVSYERVFSNECEMNAHGSSVFAF
With B1, the Tm – broadly, the temperature at which the thermal transition is half complete – by setting is: (pH 2.9, glycine 25 mM) 44.5 °C; (pH 2.94, glycine 25 mM) 43.9 °C; (pH 2.98, glycine 25 mM) 45.4 °C; (pH 3.03, glycine 25 mM) 47.8 °C; (pH 3.04, glycine 25 mM) 47.6 °C; (pH 3.07, glycine 25 mM) 48.8 °C. The Tm reads like this: (pH 3.12, glycine 25 mM) 50.5 °C; (pH 3.15, glycine 25 mM) 51.3 °C; (pH 3.16, glycine 25 mM) 52.2 °C; (pH 3.2, glycine 25 mM) 53.6 °C; (pH 3.21, glycine 25 mM) 53.4 °C; (pH 3.24, glycine 25 mM) 54.3 °C. Moreover, the Tm (pH 3.25, glycine 25 mM) is 55.7 °C; the Tm (pH 7, phosphate 25 mM) came to 82 °C; the Tm (pH 9.2, glycine 25 mM) was determined as 80.1 °C; the Tm (pH 9.75, glycine 25 mM) was 80.2 °C.
